Results as given in PMC7305236.
No end group written: not given here.

How the values were obtained:
[1] = target: atypical chemokine receptor ACKR3 (formerly CXCR7) (human) (UniProt P25106)
[2] = target: delta opioid receptor (DOR) (human) (UniProt P41143)
[3] = target: kappa opioid receptor (KOR) (human) (UniProt P41145)
[4] = target: mu opioid receptor (MOR) (human) (UniProt P35372)
[5] = target: atypical chemokine receptor ACKR3 (formerly CXCR7) (human) (UniProt P25106); remark: listed apart in the source

atypical chemokine receptor ACKR3 (formerly CXCR7) (human), sequence (P25106 whole entry): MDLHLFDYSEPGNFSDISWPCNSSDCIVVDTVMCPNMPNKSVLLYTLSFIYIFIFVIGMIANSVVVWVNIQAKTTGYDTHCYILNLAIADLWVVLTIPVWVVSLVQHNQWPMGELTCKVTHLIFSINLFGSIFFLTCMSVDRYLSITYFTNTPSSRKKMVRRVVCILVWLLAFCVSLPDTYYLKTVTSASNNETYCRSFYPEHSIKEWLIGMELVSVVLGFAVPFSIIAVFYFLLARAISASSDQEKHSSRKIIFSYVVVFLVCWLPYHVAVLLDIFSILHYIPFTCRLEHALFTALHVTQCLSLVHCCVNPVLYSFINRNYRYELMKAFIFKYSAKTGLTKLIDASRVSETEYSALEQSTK

Row | Binder | Supplementary Table 4: EC50 of β-arrestin-1 recruitment to ACKR3, U87 cells [1] [nM] | Supplementary Table 4: EC50 of β-arrestin-1 recruitment to DOR, U87 cells [2] [nM] | Supplementary Table 4: EC50 of β-arrestin-1 recruitment to KOR, U87 cells [3] [nM] | Supplementary Table 4: EC50 of β-arrestin-1 recruitment to MOR, U87 cells [4] [nM] | Supplementary Table 5: EC50 of β-arrestin-1 recruitment to ACKR3 [5] [nM]
1 | AYGGFMRRV-NH2 | 330 | 637 | 205 | 308 | –
2 | FGGWMRRKR-NH2 | – | – | – | – | 7.34
3 | YGGFKRRV-NH2 [adrenorphin-derived peptide YGGFKRRV] | 10000 | – | – | – | –
4 | YGGFMRRVR-NH2 | 12.6 | 193 | 21.9 | 58.7 | –
5 | YGGFMRRI-NH2 [adrenorphin-derived peptide YGGFMRRI] | 115 | 320 | 76.9 | 188 | –
6 | YGGFMKRV-NH2 [adrenorphin-derived peptide YGGFMKRV] | 5000 | 360 | 416 | 63.8 | –
7 | FGGWMRRVR-NH2 | – | – | – | – | 6.16
8 | YGGFMRRQ-NH2 [adrenorphin-derived peptide YGGFMRRQ] | 110 | 259 | 63.1 | 183 | –
9 | YGGFLRRV-NH2 [adrenorphin-derived peptide YGGFLRRV] | 684 | 513 | 31.9 | 880 | –
10 | GGFMRRV-NH2 [adrenorphin-derived peptide - GGFMRRV] | > 10000 | – | – | – | –
11 | FGGFMRRKR-NH2 | – | – | – | – | 1.12
12 | YGGFMRAV-NH2 [adrenorphin-derived peptide YGGFMRAV] | – | 308 | 1250 | 682 | –
13 | YGGFMRRL-NH2 [adrenorphin-derived peptide YGGFMRRL] | 153 | 254 | 71.2 | 294 | –
14 | YGGWMRRV-NH2 [adrenorphin-derived peptide YGGWMRRV] | 70.3 | 1020 | > 10000 | 522 | –
15 | YGSFMRRV-NH2 [adrenorphin-derived peptide YGSFMRRV] | 668 | > 10000 | > 10000 | > 10000 | –
16 | AGGFMRRV-NH2 [adrenorphin-derived peptide AGGFMRRV] | > 10000 | – | – | – | –
17 | YGGFARRV-NH2 [adrenorphin-derived peptide YGGFARRV] | 5000 | > 10000 | 656 | > 10000 | –
18 | YGGFMRRVC-NH2 (also: dimer of two chains) [adrenorphin-derived peptide (…)2] | 52.9 | 253 | 79.4 | 271 | –
19 | YGGFMRRF-NH2 [adrenorphin-derived peptide YGGFMRRF] | 73.5 | 212 | 80.9 | 198 | –
20 | FGGWMRRK-NH2 [second-generation peptide FGGWMRRK] | – | – | – | – | 4.39

Row | Binder | Supplementary Table 4: EC50 of β-arrestin-1 recruitment to ACKR3, U87 cells [1] [nM] | Supplementary Table 4: EC50 of β-arrestin-1 recruitment to DOR, U87 cells [2] [nM] | Supplementary Table 4: EC50 of β-arrestin-1 recruitment to KOR, U87 cells [3] [nM] | Supplementary Table 4: EC50 of β-arrestin-1 recruitment to MOR, U87 cells [4] [nM] | Supplementary Table 5: EC50 of β-arrestin-1 recruitment to ACKR3 [5] [nM]
21 | YGGLMRRV-NH2 [adrenorphin-derived peptide YGGLMRRV] | 10000 | – | – | – | –
22 | YGGAMRRV-NH2 [adrenorphin-derived peptide YGGAMRRV] | 10000 | – | – | – | –
23 | YSGFMRRV-NH2 [adrenorphin-derived peptide YSGFMRRV] | 10000 | – | – | – | –
24 | YGGFMRRK-NH2 [adrenorphin-derived peptide YGGFMRRK] | 37 | 527 | 19.2 | 252 | –
25 | YRGFMRRV-NH2 [adrenorphin-derived peptide YRGFMRRV] | 5000 | – | – | – | –
26 | FGGFMRRV-NH2 [adrenorphin-derived peptide FGGFMRRV] | 9.33 | – | – | – | –
27 | YGGFMARV-NH2 [adrenorphin-derived peptide YGGFMARV] | 5000 | 147 | 2240 | 35.4 | –
28 | YGGFFRRV-NH2 [adrenorphin-derived peptide YGGFFRRV] | 1540 | 1310 | 194 | 363 | –
29 | YAGFMRRV-NH2 [adrenorphin-derived peptide YAGFMRRV] | 611 | 2320 | – | 1090 | –
30 | YGGFMRRVA-NH2 | 72.3 | 272 | 57.5 | 174 | –
31 | YGGFQRRV-NH2 [adrenorphin-derived peptide YGGFQRRV] | 5000 | > 10000 | 283 | 5000 | –
32 | YGGFMRRA-NH2 [adrenorphin-derived peptide YGGFMRRA] | 201 | 260 | 132 | 265 | –
33 | YGGFMRKV-NH2 [adrenorphin-derived peptide YGGFMRKV] | 10000 | 378 | 230 | 786 | –
34 | YGGYMRRV-NH2 [adrenorphin-derived peptide YGGYMRRV] | 5000 | – | – | – | –
35 | FGGFMRRVR-NH2 | – | – | – | – | 3.53
36 | FGGWMRRV-NH2 [second-generation peptide FGGWMRRV] | – | – | – | – | 10.5
37 | LGGFMRRV-NH2 [adrenorphin-derived peptide LGGFMRRV] | 261 | – | – | – | –
38 | YGAFMRRV-NH2 [adrenorphin-derived peptide YGAFMRRV] | 263 | 1580 | 315 | > 10000 | –
39 | YGGFNRRV-NH2 [adrenorphin-derived peptide YGGFNRRV] | 10000 | – | 508 | – | –
40 | FGGFMRRF-NH2 [second-generation peptide FGGFMRRF] | – | – | – | – | 11
